Test results published in doi:10.1101/2022.11.16.516715 (bioRxiv, 2022).

Target: the molecule itself
Assay: cryo-EM structure

B1: RsmA (natural protein)
chain: not shown
B1: binds.
